Experiment [1] deals with humanized PBD-C06 with A97 of the VH framework substituted by murine T97 (human). The experiment is described as follows: SPR; Biacore 3000; antibody captured on a CM5 chip via immobilised anti-mouse or anti-human antibody; monomeric Aβ peptides injected (240 µl, 30 µl/min), running buffer HBS-EP; 1:1 Langmuir binding model. (Surface plasmon resonance follows binding to a sensor surface in real time, without labels.)

Experiment [2] addresses humanized PBD-C06 (CDR-grafted IgG1:kappa version) (human). The experiment is described as above.

By Kd is commonly meant the equilibrium constant for the complex coming apart. The low end stands for higher affinity, the high end for lower affinity.

Sequence of humanized PBD-C06 with A97 of the VH framework substituted by murine T97 (human) (heavy, as listed by the source, chain 1 of 2): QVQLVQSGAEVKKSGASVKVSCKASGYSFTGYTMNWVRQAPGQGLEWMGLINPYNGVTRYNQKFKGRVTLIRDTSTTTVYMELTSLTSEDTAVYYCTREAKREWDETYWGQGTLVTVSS
Sequence of humanized PBD-C06 with A97 of the VH framework substituted by murine T97 (human) (light, as listed by the source, chain 2 of 2): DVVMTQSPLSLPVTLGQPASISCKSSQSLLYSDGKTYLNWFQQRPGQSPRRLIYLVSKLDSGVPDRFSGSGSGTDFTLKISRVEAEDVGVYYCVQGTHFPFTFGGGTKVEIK
Sequence of humanized PBD-C06 (CDR-grafted IgG1:kappa version) (human) (heavy, as listed by the source, chain 1 of 2): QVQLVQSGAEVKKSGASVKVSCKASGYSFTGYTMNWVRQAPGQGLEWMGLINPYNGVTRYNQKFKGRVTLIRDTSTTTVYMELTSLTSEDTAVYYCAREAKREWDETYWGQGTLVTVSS
Sequence of humanized PBD-C06 (CDR-grafted IgG1:kappa version) (human) (light, as listed by the source, chain 2 of 2): as the sequence (light, as listed by the source, chain 2 of 2) above

Regarding pE3-Aβ(3–18) monomer (peptide), the results for the equilibrium dissociation constant (Kd) in experiment [1] and in experiment [2] were 5.3 nM and 43.5 nM, respectively.
